Patent US20230242902A1, “A HIGHLY ERROR-PRONE […] R[…] FOR TARGETED CONTINUOUS EVOLUTION IN VIVO” (The Regents of the University of California, priority 2017, published 2023)
Positions count from the first letter of the chain named. Numbers in names are those of the source.

B1: E704N: TP-DNAP1 variant (protein)
chain: MDYKDKALNDLRNVYADFDSLPLDFRQILIKDRATLLQKEDVEKKILERQEDAKKYAEYLKQSEIPERISLPNIKRHKGVSISFEETSEDMVLEPRPFIFDGLNIRCFRRETIFSLKNKILNMVKESSSFKNVSRQSVSFMYFKIFNKGKVIASTKSVNIYEDKIDERLEDLCNNFDDVLKKIIDVTYGYESLFVSETYSYVIFYAKSIYFPQPRCVNNWGNNIPNILTFDSFKLFTANKNNVSCIKQCSRFLWQKDFNTLEEMIEYKNGNICIVTPQLHINDVRDIKSFNDIRLYSESPIKTFSVIDNTITYLFYFKEHLGVIFNITKSRHDRRVTKFSPLSKFSDVKNITVCFDIESYFDPEKESNQVNIPFICCASIIYNKVIGNIVDFEGRDCVAQMIEYVVDICGELNISSVELIAHNGGGYDFHYILSSMYNPAAIKNILIRNNSFISFNFAHDGVKFSVKDSYSFLLCSLANASKAFLNEETFKKTDFPHHDLKTADDLYKVYKEWSSVNTEINHVVEKEKLLITSEHIVNFTKNDKSKTLIEWSKDYCRNDVLVLSKVWLEFKNAVEDIFNCELVDQTMTLAGLSYKLFQANMPFDVELRHPNKEDYFNMREALIGGRCISVNGIYKDVLCLDVKSLYPASMAFYDQPYGSFKRVSSRPKDELGIYYVRVTPNRNNKSNFFPIRSHNKITYNNFENSTYIAWYTNVDIDIGLSEGHNIEYIPFDSYGNIGYSWSKKGKIFEKYIKDVLYKLKIKYEKQNNKVKRNVIKIIMNSLWGKFAQKWVNFEYFIKSEDDIDFESEEAYKIWDTDFMLIKKIKESTYSSKPIQNGVFTLSWARYHMKSIWDAGAKEGAECIYSDTDSIFVHKEHFKKNAKFMLNGLKVPIIGSEVGQLELECEFDKLLCAGKKQYMGFYTYFQDGKPCIKEKKRFKGIPSNYIIPELYAHLLSGADKEAKIQFLKFRREWGSVKGYIENKTVKAT
B2: E704D: TP-DNAP1 variant (protein)
chain: B1 chain with N704D
B3: E704G: TP-DNAP1 variant (protein)
chain: B1 chain with N704G
B4: E704I: TP-DNAP1 variant (protein)
chain: B1 chain with N704I
B5: E704K: TP-DNAP1 variant (protein)
chain: B1 chain with N704K
B6: E704M: TP-DNAP1 variant (protein)
chain: B1 chain with N704M
B7: S705R: TP-DNAP1 variant (protein)
chain: B1 chain with N704E, S705R
B8: E298H: TP-DNAP1 variant (protein)
chain: B1 chain with E298H, N704E
B9: S705L: TP-DNAP1 variant (protein)
chain: B1 chain with N704E, S705L
B10: S705F: TP-DNAP1 variant (protein)
chain: B1 chain with N704E, S705F
B11: T706R: TP-DNAP1 variant (protein)
chain: B1 chain with N704E, T706R
B12: T706Q: TP-DNAP1 variant (protein)
chain: B1 chain with N704E, T706Q
B13: T706G: TP-DNAP1 variant (protein)
chain: B1 chain with N704E, T706G
B14: T706P: TP-DNAP1 variant (protein)
chain: B1 chain with N704E, T706P
B15: T706W: TP-DNAP1 variant (protein)
chain: B1 chain with N704E, T706W
B16: I708A: TP-DNAP1 variant (protein)
chain: B1 chain with N704E, I708A
B17: I708E: TP-DNAP1 variant (protein)
chain: B1 chain with N704E, I708E
B18: I708L: TP-DNAP1 variant (protein)
chain: B1 chain with N704E, I708L
B19: E298I: TP-DNAP1 variant (protein)
chain: B1 chain with E298I, N704E
B20: I708M: TP-DNAP1 variant (protein)
chain: B1 chain with N704E, I708M
B21: I708T: TP-DNAP1 variant (protein)
chain: B1 chain with N704E, I708T
B22: I708V: TP-DNAP1 variant (protein)
chain: B1 chain with N704E, I708V
B23: A709N: TP-DNAP1 variant (protein)
chain: B1 chain with N704E, A709N
B24: I729F: TP-DNAP1 variant (protein)
chain: B1 chain with N704E, I729F
B25: I729W: TP-DNAP1 variant (protein)
chain: B1 chain with N704E, I729W
B26: I729V: TP-DNAP1 variant (protein)
chain: B1 chain with N704E, I729V
B27: S733R: TP-DNAP1 variant (protein)
chain: B1 chain with N704E, S733R
B28: S733N: TP-DNAP1 variant (protein)
chain: B1 chain with N704E, S733N
B29: S733E: TP-DNAP1 variant (protein)
chain: B1 chain with N704E, S733E
B30: E298F: TP-DNAP1 variant (protein)
chain: B1 chain with E298F, N704E
B31: S733Q: TP-DNAP1 variant (protein)
chain: B1 chain with N704E, S733Q
B32: I824E: TP-DNAP1 variant (protein)
chain: B1 chain with N704E, I824E
B33: Y829I: TP-DNAP1 variant (protein)
chain: B1 chain with N704E, Y829I
B34: Y829F: TP-DNAP1 variant (protein)
chain: B1 chain with N704E, Y829F
B35: S831T: TP-DNAP1 variant (protein)
chain: B1 chain with N704E, S831T
B36: K959A: TP-DNAP1 variant (protein)
chain: B1 chain with N704E, K959A
B37: K959M: TP-DNAP1 variant (protein)
chain: B1 chain with N704E, K959M
B38: K962Q: TP-DNAP1 variant (protein)
chain: B1 chain with N704E, K962Q
B39: E298P: TP-DNAP1 variant (protein)
chain: B1 chain with E298P, N704E

System: p1
Experiment: p1 copy number by p1-encoded mKate2 fluorescence
Assay type: cell-based, S. cerevisiae
Conditions: OR-Y24, measured in triplicate
Procedure, shortened: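 Yeast OR-Y24 strains carrying TP-DNAP1 variants were grown to saturation from a 1:10,000 dilution, and p1-encoded mKate2 fluorescence was measured by flow cytometry (ex/em 561/620 nm). Values were converted to copy number via a linear calibration against qPCR of p1-encoded LEU2 versus genomic LEU3, or by plate-reader OD600-normalized fluorescence relative to w.t. TP-DNAP1.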

Row | Molecule | Mean fold-increase over w.t. (p1 copy number) [fold]
1 | B1 | 1.85
2 | B2 | 1.89
3 | B3 | 1.75
4 | B4 | 1.35
5 | B5 | 1.8
6 | B6 | 2.02
7 | B7 | 1.84
8 | B8 | 2.57
9 | B9 | 1.98
10 | B10 | 1.76
11 | B11 | 2
12 | B12 | 2.92
13 | B13 | 1.72
14 | B14 | 1.73
15 | B15 | 1.73
16 | B16 | 2.55
17 | B17 | 2.41
18 | B18 | 2.16
19 | B19 | 2.34
20 | B20 | 2.32

Row | Molecule | Mean fold-increase over w.t. (p1 copy number) [fold]
21 | B21 | 2.41
22 | B22 | 2.01
23 | B23 | 2.01
24 | B24 | 1.7
25 | B25 | 1.97
26 | B26 | 1.87
27 | B27 | 1.98
28 | B28 | 1.86
29 | B29 | 2.06
30 | B30 | 1.74
31 | B31 | 1.86
32 | B32 | 2.12
33 | B33 | 1.86
34 | B34 | 2.46
35 | B35 | 1.71
36 | B36 | 1.55
37 | B37 | 2.02
38 | B38 | 1.56
39 | B39 | 2.57
